Assay results taken from article PMC6889415, “Global redox proteome and phosphoproteome analysis reveals redox switch in Akt” (Nature Communications, 2019).
One block for each binder: values may come before it.

Legend:
[1] = biological target: the molecule itself; test: non-reducing SDS-PAGE with immunoblot; adipocytes treated with BCNU or BCNU/AF for 2 or 24 h; washed and scraped in PBS with 100 mM NEM, 1% SDS; non-reducing SDS-PAGE, immunoblot; dimer/monomer ratio measured
[2] = biological target: T1, peroxiredoxin 2 (mouse (endogenous in 3T3-L1 adipocytes)), Q61171; test: as above; details: remark: other sources report otherwise
T1 chain: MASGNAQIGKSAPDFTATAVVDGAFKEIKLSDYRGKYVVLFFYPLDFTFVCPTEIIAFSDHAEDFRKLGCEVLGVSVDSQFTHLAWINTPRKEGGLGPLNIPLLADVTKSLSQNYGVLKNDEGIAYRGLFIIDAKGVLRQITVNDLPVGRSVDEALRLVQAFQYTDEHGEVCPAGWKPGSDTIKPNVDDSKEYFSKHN

B1: peroxiredoxin 3 (natural protein, mouse (endogenous in 3T3-L1 adipocytes), UniProt P20108 63-257, looked up)
chain: TPAVTQHAPYFKGTAVVNGEFKELSLDDFKGKYLVLFFYPLDFTFVCPTEIVAFSDKANEFHDVNCEVVAVSVDSHFSHLAWINTPRKNGGLGHMNITLLSDITKQISRDYGVLLESAGIALRGLFIIDPNGVVKHLSVNDLPVGRSVEETLRLVKAFQFVETHGEVCPANWTPESPTIKPSPTASKEYFEKVHQ
notes: peroxiredoxin 3 (Prdx3), mitochondrial, endogenous in 3T3-L1 adipocytes, detected with anti-PRDX3; The dimer seen on the non-reducing gel is held by a disulfide bond formed on oxidation; also called Prdx3; PRDX3; source: endogenous, 3T3-L1 adipocyte lysate
- stoichiometry N [1]: 2

- stoichiometry N [2]: 2
B2: peroxiredoxin 2, Q61171 1-198 (natural protein)
chain: T1 chain
